Changes are numbered by the printed parent chain.
T1: mouse PD-1 on transfected 293F cells (mouse, UniProt Q02242 25-288)
T1 construct: whole, on cells; also called cell surface mouse PD-1
T1 sequence (looked up): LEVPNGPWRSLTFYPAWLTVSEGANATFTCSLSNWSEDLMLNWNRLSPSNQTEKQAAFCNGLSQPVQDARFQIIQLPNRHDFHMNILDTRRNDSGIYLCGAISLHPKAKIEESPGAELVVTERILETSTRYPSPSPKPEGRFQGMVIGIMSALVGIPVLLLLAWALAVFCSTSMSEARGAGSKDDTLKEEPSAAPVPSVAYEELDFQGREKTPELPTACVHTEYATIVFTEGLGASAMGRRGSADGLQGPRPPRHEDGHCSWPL

T2: mouse PD-1 (Sino Biological), coated on plates (mouse, UniProt Q02242 25-167)
T2 sequence (looked up): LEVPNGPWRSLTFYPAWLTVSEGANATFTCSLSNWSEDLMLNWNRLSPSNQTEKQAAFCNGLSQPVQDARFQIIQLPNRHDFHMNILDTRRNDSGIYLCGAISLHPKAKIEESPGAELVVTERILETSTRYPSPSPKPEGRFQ

T3: mPD-1.His (mouse, UniProt Q02242 25-167, limits assumed)
T3 construct: Soluble analyte, probably the extracellular domain; also called mouse PD-1 (SPR analyte)
T3 sequence (looked up): T2 sequence (looked up)

T4: mouse PD-1 antigen protein of the affinity-maturation screen (mouse, UniProt Q02242 25-167, limits assumed, biotinylated)
T4 sequence (looked up): T2 sequence (looked up)

B1: 2C2 (antibody, human IgG4, V domains shown)
VH: QVQLVQSGAEVKKPGSSVKVSCKASGFTFTTYYISWVRQAPGQGLEYLGYINMGSGGTNYNEKFKGRVTITADKSTSTAYMELSSLRSEDTAVYYCAIIGYFDYWGQGTMVTVSS
VL: DVVMTQSPLSLPVTLGQPASISCRSSQSLLDSDGATYLYWFQQRPGQSPRRLIYLVSTLGSGVPDRFSGSGSGTDFTLKISRVEAEDVGVYYCMQLTHWPYTFGQGTKLEIK
B2: 2G4 (antibody, human IgG4, V domains shown)
VH: B1 VH
VL: B1 VL with A35S

Legend:
[1] = molecular target: T1, mouse PD-1 on transfected 293F cells; test: FACS, mouse PD-1 transfected 293F cells
[2] = molecular target: T5, human PD-1 on transfected cells (human, UniProt Q15116 25-288); test: FACS, human PD-1 transfected CHO-S cells
T5 construct: also called CHO-S cells expressing human PD-1; human PD-1 transfected CHO-S cells
T5 sequence (Q15116 25-288 limits assumed): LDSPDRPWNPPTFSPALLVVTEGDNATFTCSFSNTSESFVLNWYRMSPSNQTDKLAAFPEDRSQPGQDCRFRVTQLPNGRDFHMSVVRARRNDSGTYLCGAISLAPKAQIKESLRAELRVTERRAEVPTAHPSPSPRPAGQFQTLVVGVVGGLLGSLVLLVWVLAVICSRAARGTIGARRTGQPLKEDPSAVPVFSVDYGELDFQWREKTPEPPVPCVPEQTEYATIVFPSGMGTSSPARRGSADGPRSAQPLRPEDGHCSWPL

[3] = molecular target: T6, human PD-1 (Sino Biological), coated on plates (human, UniProt Q15116 25-167); test: ELISA, plates coated with human PD-1 at 1 µg/ml
T6 construct: whole entry named
T6 sequence (Q15116 25-167 limits assumed): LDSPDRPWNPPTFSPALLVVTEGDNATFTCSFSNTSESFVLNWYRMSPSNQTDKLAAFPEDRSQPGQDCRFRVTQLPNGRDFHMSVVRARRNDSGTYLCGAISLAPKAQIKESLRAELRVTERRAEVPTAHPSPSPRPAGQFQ
Method: (§1) For ELISA, plates (Nunc) were coated with human, cynomolgus or mouse PD-1 (Sino Biological) at 1 μg/ml overnight at 4° C. After blocking and washing, antibodies were serially diluted in blocking buffer and added to the plates and incubated at room temperature for 1 h. The plates were then washed and subsequently incubated with secondary antibody goat anti human IgG HRP (Bethyl) for 1 h. After washing, TMB substrate was added and the reaction was stopped by 2 M HCl. The absorbance at 450 nm was read using a microplate reader (Molecular Device).

[4] = molecular target: T2, mouse PD-1 (Sino Biological), coated on …; test: ELISA, plates coated with mouse PD-1 at 1 µg/ml
Method: as §1

[5] = molecular target: cynomolgus PD-1 (Sino Biological), coated on plates (cynomolgus, UniProt B0LAJ3 25-170); test: ELISA, plates coated with cynomolgus PD-1 at 1 µg/ml
Chain of cynomolgus PD-1 (Sino Biological), coated on plates (B0LAJ3 entry or part of it limits assumed): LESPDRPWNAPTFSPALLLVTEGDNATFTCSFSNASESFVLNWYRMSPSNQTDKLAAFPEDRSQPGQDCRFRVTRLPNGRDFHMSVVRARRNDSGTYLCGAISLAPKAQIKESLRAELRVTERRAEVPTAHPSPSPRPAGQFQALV
Method: as §1

[6] = molecular target: T1, mouse PD-1 on transfected 293F cells; test: flow cytometry on 293F cells expressing mouse PD-1, quantitative beads
Method: (§2) Testing antibodies were 1:2 serially diluted in wash buffer (1×PBS/1% BSA) and incubated with cells at 4° C. for 1 h.

[7] = molecular target: T5, human PD-1 on transfected cells; test: flow cytometry on CHO-S cells expressing human PD-1, quantitative beads
Method: as §2

[8] = molecular target: T7, human CD28 on a constructed cell line (human, UniProt P10747 19-220); test: FACS, CD28.CHO-K1 cells, one antibody concentration (not given)
T7 construct: whole, on cells
Method: (§3) Constructed cell lines that respectively express human PD-1, CD28, CTLA-4 or ICOS were transferred in to 96-well U-bottom plates (BD) at a density of 2×10⁵ cells/well. Testing antibodies were diluted in wash buffer (1×PBS/1% BSA) and incubated with cells at 4° C. for 1 h. After washing, the secondary antibody goat anti-human IgG Fc FITC (Jackson ImmunoResearch Lab) was added and incubated at 4° C. in the dark for 1 h. The cells were then washed once and resuspended in 1×PBS/1% BSA, and analyzed by flow cytometery (BD) and FlowJo software.

[9] = molecular target: T8, human CTLA-4 on a constructed cell line (human, UniProt P16410 36-223); test: FACS, CTLA-4.293F cells, one antibody concentration (not given)
T8 construct: whole, on cells
T8 sequence (P16410 36-223): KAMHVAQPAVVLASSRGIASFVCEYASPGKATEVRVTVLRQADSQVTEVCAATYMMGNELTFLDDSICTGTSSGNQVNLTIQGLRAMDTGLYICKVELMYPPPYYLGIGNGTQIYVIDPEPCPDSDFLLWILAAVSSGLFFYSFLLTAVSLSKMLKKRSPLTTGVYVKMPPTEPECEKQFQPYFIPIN
Method: as §3

hPD-1.His = molecular target: T9, hPD-1.His (human, UniProt Q15116 25-170); test: SPR (ProteOn XPR36), antibody captured on Protein A, PD-1.His as analyte, 1:1 fit
T9 construct: the SPR text says only human PD-1; also called human PD-1 (SPR analyte)
T9 sequence (Q15116 25-170): as the sequence (B0LAJ3 entry or part of it limits assumed) above, with E2D, A10P, L19V, A35T, R75Q, A144T counted along it
Source text: (§4) Antibodies were characterized for affinity and binding kinetics to PD-1 by SPR assay using ProteOn XPR36 (Bio-Rad). Protein A protein (Sigma) was immobilized to a GLM sensor chip (Bio-Rad) through amine coupling. Purified antibodies were flowed over the sensor chip and captured by the Protein A. The chip was rotated […] and washed with running buffer (1×PBS/0.01% Tween20, Bio-Rad) until the baseline was stable. Seven concentrations of human PD-1 and running buffer were flowed through the sensor chip at a flow rate of 30 μL/min for an association phase of 180 s, followed by 300s dissociation. After regeneration, seven concentration of mouse PD-1 and running buffer were flowed through the sensor chip at a flow rate of 30 μL/min for an association phase of 180 s, followed by 300 s dissociation. The chip was regenerated with pH 1.5 H₃PO₄ after each run. The association and dissociation curve was fit by 1:1 Langmuir binding model using ProteOn software.

mPD-1.His = molecular target: T3, mPD-1.His; test: as above
Source text: as §4

[10] = molecular target: human PD-1 antigen protein of the affinity-maturation screen (human, UniProt Q15116 25-167, limits assumed, biotinylated); test: capture ELISA, second-round affinity-maturation screen (scFv format likely); unit not given
Chain of human PD-1 antigen protein of the affinity-maturation screen (Q15116 25-167 limits assumed): as the sequence (Q15116 25-167 limits assumed) above

[11] = molecular target: T4, mouse PD-1 antigen protein of the …; test: as above
[12] = molecular target: cynomolgus PD-1 antigen protein of the affinity-maturation screen (cynomolgus); test: as above
[13] = molecular target: T1, mouse PD-1 on transfected 293F cells; test: FACS blocking assay: mouse Fc fusion-mouse PD-L1 binding to mouse PD-1 transfected 293F cells
[14] = molecular target: T5, human PD-1 on transfected cells; test: FACS blocking assay: mouse Fc fusion-human PD-L1 binding to human PD-1 transfected CHO-S cells
[15] = molecular target: T5, human PD-1 on transfected cells; test: FACS competition on CHO-S cells expressing human PD-1 against biotinylated Keytruda at 1 µg/ml
Method: (§5) The cells were washed and the second antibody Streptavidin-PE were added and incubated for 30 min at 4° C. The cells were then washed once and resuspended in 1×PBS/1% BSA, and analyzed by flow cytometery (BD).

[16] = molecular target: T5, human PD-1 on transfected cells; test: FACS competition on CHO-S cells expressing human PD-1 against biotinylated WBP305BMK1 at 1 µg/ml
Method: as §5

| Binder | EC50 [1] [nM] | EC50 [2] [nM] | EC50 [3] [nM] | EC50 [4] [nM] | EC50 [5] [nM] | Kd [6] [nM] | Kd [7] [nM] | binding result [8] | binding result [9] | Kd (hPD-1.His) [nM] | koff (hPD-1.His) [s⁻¹] | kon (hPD-1.His) [M⁻¹ s⁻¹] | Kd (mPD-1.His) [nM] | koff (mPD-1.His) [s⁻¹] | kon (mPD-1.His) [M⁻¹ s⁻¹] | Bmax [10] | Bmax [11] | Bmax [12] | IC50 [13] [nM] | IC50 [14] [nM] | further results |
| --- | --- | --- | --- | --- | --- | --- | --- | --- | --- | --- | --- | --- | --- | --- | --- | --- | --- | --- | --- | --- | --- |
| B1 | 11.8 | 2.36 | 0.12 | 0.41 | 0.12 | 17.4 | 0.264 | no binding | no binding | 5.64 | 0.00414 | 733000 | 6.92 | 0.00153 | 221000 | 3.17 | 0.416 | 1.67 | 16.7 | 2.2 | IC50 [15]: 11.1 nM; IC50 [16]: 6.55 nM |
| B2 | 14.8 | 2.78 | 0.21 | 0.2 | 0.36 | 35.1 | 0.38 | no binding | no binding | 7.09 | 0.0047 | 663000 | 3.89 | 0.0013 | 334000 | 3.37 | 0.479 | 1.72 | 18.7 | 2.23 | IC50 [15]: 17.2 nM; IC50 [16]: 8.93 nM |
